The target of test [1] is T1, GFP:hnRNPH1-LC1, His tag cleaved, as liquid-like droplets (human (cDNA library from HEK-293T cells), UniProt P31943 192-280).
T1 sequence: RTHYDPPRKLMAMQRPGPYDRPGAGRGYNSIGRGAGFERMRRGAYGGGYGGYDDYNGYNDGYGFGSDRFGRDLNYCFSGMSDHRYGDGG
The experiment in a line: LLD incorporation assay.

Test [2] has as its target T2, GFP-linked full-length hnRNPH1 (amino acids 2 through 449) (human (cDNA library from HEK-293T cells), UniProt P31943 2-449).
T2 sequence: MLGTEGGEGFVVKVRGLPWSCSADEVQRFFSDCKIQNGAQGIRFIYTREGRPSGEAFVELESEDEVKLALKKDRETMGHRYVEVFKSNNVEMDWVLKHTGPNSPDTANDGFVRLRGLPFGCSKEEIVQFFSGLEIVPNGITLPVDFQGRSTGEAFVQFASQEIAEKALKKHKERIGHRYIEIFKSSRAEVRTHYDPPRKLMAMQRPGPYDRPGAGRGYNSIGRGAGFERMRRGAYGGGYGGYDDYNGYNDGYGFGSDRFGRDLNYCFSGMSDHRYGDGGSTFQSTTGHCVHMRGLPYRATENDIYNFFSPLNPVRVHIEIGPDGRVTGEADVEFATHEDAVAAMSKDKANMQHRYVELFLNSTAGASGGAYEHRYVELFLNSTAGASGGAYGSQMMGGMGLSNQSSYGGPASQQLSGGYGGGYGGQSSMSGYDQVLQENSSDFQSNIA
Briefly: hydrogel-binding assay.

B1: mCherry-linked LC1 domain of hnRNPH1 (amino acids 192 through 280), His tag cleaved (domain or fragment)
chain: T1 sequence
As to B1, in test [1], the binding result is on record as “binds”.

B2: mCherry-linked C-terminal half of hnRNPH1 (amino acids 192 through 449), as hydrogel droplets or polymers (domain or fragment)
chain: RTHYDPPRKLMAMQRPGPYDRPGAGRGYNSIGRGAGFERMRRGAYGGGYGGYDDYNGYNDGYGFGSDRFGRDLNYCFSGMSDHRYGDGGSTFQSTTGHCVHMRGLPYRATENDIYNFFSPLNPVRVHIEIGPDGRVTGEADVEFATHEDAVAAMSKDKANMQHRYVELFLNSTAGASGGAYEHRYVELFLNSTAGASGGAYGSQMMGGMGLSNQSSYGGPASQQLSGGYGGGYGGQSSMSGYDQVLQENSSDFQSNIA
Regarding B2, the binding result in test [2] is reported as “binds”.

The values are drawn from publication PMC8685725 (Proceedings of the National Academy of Sciences of the …, 2021).
